Measured values reported in article PMC3172200 (PLoS Biology, 2011).
Where no end group is shown, it is not given here. [ ]: non-standard residue; d: D form.

T1: recombinant wild type SEB with N-terminal His6-tag (S. aureus COL, UniProt P01552 28-266)
T1 sequence: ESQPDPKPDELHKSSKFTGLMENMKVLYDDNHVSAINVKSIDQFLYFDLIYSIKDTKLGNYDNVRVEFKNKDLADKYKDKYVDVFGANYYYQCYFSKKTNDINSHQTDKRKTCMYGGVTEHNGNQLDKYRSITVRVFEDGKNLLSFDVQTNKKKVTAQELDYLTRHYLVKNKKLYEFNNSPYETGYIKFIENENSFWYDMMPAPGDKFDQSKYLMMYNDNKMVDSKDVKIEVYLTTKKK


Molecular target: T1, recombinant wild type SEB with …
Test: western blot of SEB bound to transfected cells
Settings: both partners purified

Row | Binder | binding result
1 | [dA]HVKGKHLCP[dA] (source: synthetic peptide) [p1TA (HVKGKHLCP; CD28 116-124), form for biological assays] | binds
2 | ASPMLVAYDA (D-Ala at both termini, source: synthetic peptide) [p2TA (SPMLVAYD; CD28 8-15), form for biological assays] | binds
